Source: patent US20130324704A1 (published 2013)

T1: Mouse EGFL7 (mEGFL7-CB-His) (mouse, UniProt Q9QXT5 22-275)
T1 construct: Limits of the construct and the CB(-His) tag are not described; also called murine EGFL7
T1 sequence: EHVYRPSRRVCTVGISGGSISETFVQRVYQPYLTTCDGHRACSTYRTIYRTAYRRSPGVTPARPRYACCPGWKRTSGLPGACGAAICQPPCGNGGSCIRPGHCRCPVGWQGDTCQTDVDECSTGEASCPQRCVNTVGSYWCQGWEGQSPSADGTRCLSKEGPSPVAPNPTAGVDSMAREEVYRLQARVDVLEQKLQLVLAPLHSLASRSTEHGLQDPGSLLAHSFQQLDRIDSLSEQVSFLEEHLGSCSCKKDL


How the values were obtained:
[1] = target: T1, Mouse EGFL7 (mEGFL7-CB-His); assay: SPR (Biacore) at 37 C, IgG over immobilized mEGFL7-CB
[2] = target: EGFL7 coated on plates in the Cell Adhesion Assay (mouse EGFL7 (mEGFL7-CB-His) or human EGFL7 (EGFL7-CB-His)); …; assay: cell-based or functional assay

Kd [1] | Cell Adhesion Assay Variant/ch4F11 (fold) [2] | Binder
6.8 nM | – | hu18F7.v6J, IgG (antibody, V domains shown, Variant of 18F7.v6; Expressed as IgG) VH: EVQLVESGGGLVQPGGSLRLSCAASGYTFIDYYMNWVRQAPGKGLEWVGDINLDNSGTHYNQKFKGRFTISRDKSKNTAYLQMNSLRAEDTAVYYCAREGVYHDYDDYAMDYWGQGTLVTVSS VL: DIQMTQSPSSLSASVGDRVTITCRTSQSLVHINSITYLHWYQQKPGKAPKLLIYRVSNRFSGVPSRFSGSGSGTDFTLTISSLQPEDFATYYCGQSTHVPLTFGQGTKVEIK
– | 4.01 fold | 4F11.v6, IgG (antibody, V domains shown) VH: EVQLVESGGGLVQPGGSLRLSCAASGHTFTTYGMSWVRQAPGKGLEWVGWINTHSGVPTYADDFKGRFTISRDNSKNTVYLQMNSLRAEDTAVYYCARLGSSAVDYWGQGTLVTVSS VL: DIQMTQSPSSLSASVGDRVTITCKASQSVDYDGDSYMSWYQQKPGKAPKLLIYGASYLESGVPSRFSGSGSGTDFTLTISSLQPEDFATYYCQQNNEDPYTFGQGTKVEIK
– | 4.38 fold | 4F11.v10, IgG (antibody, V domains shown) VH: EVQLVESGGGLVQPGGSLRLSCAASGHTFTTYGMSWVRQAPGKGLEWVGWINTHSGVPTYADDFKGRFTISRDNSKNTVYLQMNSLRAEDTAVYYCARLGSYAVDYWGQGTLVTVSS VL: DIQMTQSPSSLSASVGDRVTITCKASQSVDYDGDSYMSWYQQKPGKAPKLLIYGASYLESGVPSRFSGSGSGTDFTLTISSLQPEDFATYYCQQNNEDPYTFGQGTKVEIK
